# Measured values from US20240327502A1 (Merck Sharp & Dohme, published 2024).
# B1: M3E06 (antibody, V domains shown)
# VH: EVQLVESGGGLVQPGGSLRLSCAASGFTFSSYWMSWVRQAPGKGLEWVANIKQDGSEKYYVDSVKGRFTISRDNAKNSLYLQMNSLRAEDTAVYYCARYYYDSSGYYYYYYYYMDVWGKGTTVTVSS
# VL: not shown
# notes: IgG
# B2: M3A05 (antibody, V domains shown)
# VH: QITLKESGPTLVKPTQTLTLTCTFSGFSLNTGGVSVGWIRQPPGKALEWLALIYWDGDKRYSPSLKSRLTITKDTSKNQVVFTMTNMDPVDTATYYCAHRENSAYIDFWGQGTLVTVSS
# VL: QSVLTQPPSVSAAPGQKVTISCSGSSSNIGNNYVSWYQQLPGAAPKLLIYDNNKRPSGIPDRFSGSKSGTSASLGITGLQTGDEADYYCGTWDSSLSVGFYVFGTGTKVTVL
# notes: IgG
# B3: M2D08 (antibody, V domains shown)
# VH: QVQLVESGGGVVQPGRSLRLSCAASGFVFRFSGMHWIRQAPGKGLQWVAHISDDGSQKYYADSVTGRFAISRDNSRNTLFLEMTGLRGDDTAVYYCARGDYGVSYFLAHWGLGELVIVSS
# VL: EIVLTQSPATLSLSPGERATLSCRASQNIYNYLAWYQQKPGQAPRLVIYDASNRATGIPARFSGSGSETDFTLTISSLEPEDFAVYYCQQRSDWTFGQGTKLEIK
# notes: IgG
# B4: M2B05 (antibody, V domains shown)
# VH: QVQLQQWGAGLLRPSETLSLTCTVYGGSFGGYHWSWIRQSPGKGLEWIGEIDHGGNTNFNPSLKSRVTISVDRSKKQFSLKLTSVTAADTAVYYCARGFGVVINNWFDPWGQGTLVTVSS
# VL: DIQMTQSPSSLSASVGDRVTITCRASQTINSYLNWYQQKPGKAPTLLIYTVSSLQSGVPSRFSGSGSGTVFSLTISSLQPEDFATYYCQQSYNSPYTFGQGTKLEIK
# notes: IgG
# B5: M3D08 (antibody, V domains shown)
# VH: QVQLQESGPGLVKPSETLSLTCSVSGVSISSHYWSWIRQPAGKGLEWIGRLYTSGTTTYNPSLNSRVTMSVDTTNNRLSLRLTSVTAADTAVYYCARDVRLTVFGALHNWFDPWGQGILVTVSS
# VL: DIQMTQSPSSLSASVGDRVTITCRASQSIGTHLNWYQQQRGRAPKLLVYAASGLQSGVPSRFSGSGSGTYFTLTISSLQPEDFATYYCQQSYSTPSITFGQGSRLDIK
# notes: IgG
# B6: M2C06 (antibody, V domains shown)
# VH: QVQLVQSGAEVKKPGSSVKVSCRPSGGTFSNDILSWVRQAPGQRLEWMGRIIPLVNMTNIAQKFQGRLTLVADKSTAIVHLELGSLRAEDTAIYYCVRDLPSAGFPAPFDIWGQGTRVTVSA
# VL: EIVLTQSPGSLSLSPGARATVSCRASQSLNSASLVWYQQRVGQAPRLLMFGASNRATGIPDRFSGSGSGTDFTLTISRLEPEDFAVYYCQQYAFSPPTFGQGTKVEIK
# notes: IgG
# B7: M4A10 (antibody, V domains shown)
# VH: QVQLVQSGAEVKKPGASVKVSCKASGYTFNGHYLHWVRQAPGQGLEWMGWINPNSGGTDYAQRFQGRVTMTRGTSISTAYMELSRLTSDDTAVYFCARDNFGFWSASSGRHNWLDSWGQGTLVIVSS
# VL: NFMLTQPHSVSESPGKTVTISCTRSTGNIASNYVQWYQQRPGSSPTTVIYEDNQRPSAVPDRFSGSIDSSSNSASLTVSGLRTEDEADYYCQSYDSGHHVVFGGGTKLTVL
# notes: IgG
# B8: M4B03 (antibody, V domains shown)
# VH: QVQLVQSGAEVKKPGASVKVSCKASGYIFSNYRMHWVRQAPGQRLEWMGWITAGSGNTRYSEQFQGRVAFTSDTDATTVSMELSGLRFEDTAVYFCAREYNWNDAFPYWGQGTLVIVSS
# VL: SYVLTQPPSVSVAPGQTARIPCGGNNIGSKSVHWYQQKSGRAPVLVVYDDSDRPPGIPDRFSGSNSGNTATLTINKIEAGDEADYYCHVSDDNSDHVFFGGGTQLTVL
# notes: IgG
# B9: M2C08 (antibody, V domains shown)
# VH: QVQLVQSGAEVKKPGASVIVSCRASGFTFSLYTMHWVRQAPGQGLEWMGWISADNSNTKYSQKYQDRVTITMDTSATTLFMEISSLRSEDTAVYYCTRGPAYYFDSSGFAFDIWGQGTLVTVSS
# VL: EIVLTQSPGTLSLSPGERATLSCRASQSVSRTYLGWYQQRPGLAPRLLIYGTSSRATGIPDRFSGSGSGTDFTLTISRLEPEDFATYYCQHFGSSLTFGGGTKVEIK
# notes: IgG
# B10: M2C11 (antibody, V domains shown)
# VH: QVQLVQSGAEVRKPGASVKVSCKASGYTFTSHDINWVRQAPGQGLEWMGWMNPNSDTTGYAQKFQGRVTMARDISMSTAYMELSSLTSEDTAVYYCARGRHNYYTNGPTRDGFDIWGQGTMVTVSS
# VL: SYELTQPPSVSVSPGQTATITCSGDDLGNQYANWFQQRPGQSPVLVIYQDNKRPSGIPERFSGSSSGNTATLTISGTQPLDEADYYCQAWDSRTYVFGTGTKVTVL
# notes: IgG
# B11: M3C06 (antibody, V domains shown)
# VH: QVQLVQSGAEVKKPGSSVKVSCKAYGGTLSNYAISWVRQAPGQGLHWMGRIIPVMNVANYADNFQGRVTITADKSTSTAYMELSSLRSEDAAIYYCATARGLGSLEGGDAFDVWGQGTMLTVSS
# VL: DIVMTQSPDSVAVSLGERATISCKSSLSLLYSSNNKNYLVWYQQKPGQPPKLLFYWASTRESGVPDRFSASGSGTDFTLTISSLQAEDVAVYYCQQYYSTPITFGQGTRLEIR
# notes: IgG
# B12: M2C05 (antibody, V domains shown)
# VH: EVQLLESGGGLVQPGGSLRLSCAGSGFTFSNYAMSWVRQAPGKGLEWVSDINDRGETTHYADSVKGRFTISRDNSKKKLFLQMNDLRAEDTAIYYCTRAYVVLSVYAPKGFDYWGQGTLVSVSS
# VL: DIQMTQSPSILSASEGDRVTITCRASQSVSNWLAWYQQKSGRAPKLLIYKASSLETGVPSRFSGSGSGTEFTLTINNLQPDDFATYYCQHYNGYPYTFGQGTKLEIK
# notes: IgG
# B13: M1C7 (antibody, V domains shown)
# VH: QVQLVESGGGLVQPGRSLRLSCAASGFTFSSYAMHWVRQAPGKGLEWVAIITYDGSGKYYADSLEGRITISRDDPKSMLYLHMRSLTAEDTAVYYCVKSGSFSSAFWLEDWGQGTLVTVSS
# VL: EIVLTQSPATLSLSPGERATLSCRASQSISNFVAWYQQKPGQAPRLLIYDASNGATGTPARFSGSGSGTDFTLTISSLEPEDFAVYYCQQRSTWTFGQGTKVEIKR
# notes: IgG; also called MIC7
# B14: M2B11 (antibody, V domains shown)
# VH: QVQLVQSGTEVKKPGASVKVSCKASGYTFTSHDINWLRQATGQGLEWLGWMNPNSATTGYAQKFQGRVTLTRDISISTAYMELSSLRSDDTAVYYCARNRHYYYADGPTRDAFDIWGQGTVVTVSS
# VL: SYELTQTPTVSVSPGQTASITCSGDELGHKYTSWYQQKPGQSPVLVVYQDTKRPSGIPERFSGSNSGNTATLTISGTQVMDEADYYCQAWDSGTVLLGGGTKLTVL
# notes: IgG
# B15: M3C01 (antibody, V domains shown)
# VH: QLQLQESGPGLVKPSETLSLTCTVSGGSISSSSYFWGWIRQPPGKGLEWIGSVFYSGSTYYNPSLKSRVTISVDTPKNQFSLRLSSVTAADTAVYYCARHSWDRWVYWGQGTLVTVSS
# VL: DIQMTQSPSSVSASVGDRVTITCRASQDISSWLAWYQQKPGKAPKLLIYAASSLQSGVPSRFSGSGSGTDFTLTISSLQPEDFATYYCQQANSFPLTFGGGTKVEIK
# notes: IgG
# B16: M2C01 (antibody, V domains shown)
# VH: EVQLVESGGDLAKPGGSLRLSCEASGFTFSNAWMSWVRQAPGKGLEWVGQIKPHTDGATTDYAAPVKGRFTISRDDSKSTLYLRMNILRIEDTAMYYCTTGPRLSLMWGQGTRVTVSS
# VL: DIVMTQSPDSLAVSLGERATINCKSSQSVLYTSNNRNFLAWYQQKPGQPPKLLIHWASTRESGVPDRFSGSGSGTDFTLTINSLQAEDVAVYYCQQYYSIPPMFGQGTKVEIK
# notes: IgG
# B17: M3E05 (antibody, V domains shown)
# VH: EVQLVESGGSVIQPGGSLRLSCAASGFSVRTNYMNWVRQAPGKGLEWVSVIYSDGRTYYSDSVKGRFTISRDNSMNNVFLQMNSLRAEDTAVYYCARDPTFYSSSWWYLDHWGQGTQVTVSS
# VL: SYELTQALSVSVARGQTAKITCGGNNIGVRNVHWYQQKPGQAPVLVIYRDNIRPSGIPERFSGSNSGNMAALTISSAQEGDEADYYCQVWDSNTAHVIFGGGTKLTVL
# notes: IgG
# B18: M3A11 (antibody, V domains shown)
# VH: EVQLVESGGGLVQPGGSLRLSCAASGFTFSDYSMNWVRQAPGQGLEWISYISSTGSTIYYADSVRGRFTISRDNAKNSLYLQMNTLRAEDTAVYYCARGKTTVTIWFDPWGQGTLVTVSS
# VL: SYVLTQPPSVSVAPGQTARITCGGNNIGSKSVHWYQQKPGQAPVLVVYDDSDRPSGIPERFSGSNSGNTATLTISRVEAGDEADYYCQVWHSSSDWVFGGGTRLTVL
# notes: IgG
# Molecular target: T1, Processed stabilized hMPV PreF trimer (115BV) (human metapneumovirus, strain B2)
# T1 construct: also called Processed hMPV PreF trimer; processed PreF
# Assay: BLI, mAb on anti-human Fc sensor
row,Binder,Octet binding response
1,B1,0.0101 nm
2,B2,0.0071 nm
3,B3,0.182 nm
4,B4,0.542 nm
5,B5,0.0113 nm
6,B6,0.472 nm
7,B7,0.23 nm
8,B8,0.108 nm
9,B9,0.157 nm
10,B10,0.362 nm
11,B11,0.195 nm
12,B12,0.464 nm
13,B13,0.359 nm
14,B14,0.498 nm

# Molecular target: T2, hMPV PostF trimer (human metapneumovirus, strain B2)
# T2 construct: also called MPV PostF (dPFv1)
# Assay: BLI, mAb on anti-human Fc sensor
row,Binder,Octet binding response
1,B1,0.329 nm
2,B2,0.229 nm
3,B15,0.327 nm
4,B3,-0.0414 nm
5,B4,0.486 nm
6,B5,0.307 nm
7,B16,-0.0726 nm
8,B6,0.436 nm
9,B7,-0.0388 nm
10,B17,0.509 nm
11,B8,-0.061 nm
12,B18,0.414 nm
13,B9,-0.0185 nm
14,B10,-0.03 nm
15,B11,-0.0338 nm
16,B13,0.0541 nm
17,B14,-0.0289 nm

# Molecular target: T3, Unprocessed hMPV PreF trimer (human metapneumovirus, strain B2)
# T3 construct: also called Unprocessed hMPV WT PreF trimer; unprocessed hMPV PreF trimeric antigen
# Assay: BLI, mAb on anti-human Fc sensor
row,Binder,Octet binding response
1,B15,0.0597 nm
2,B3,0.416 nm
3,B4,0.447 nm
4,B16,0.107 nm
5,B6,0.408 nm
6,B7,0.325 nm
7,B17,0.126 nm
8,B8,0.324 nm
9,B9,0.415 nm
10,B10,0.349 nm
11,B11,0.208 nm
12,B12,0.399 nm
13,B13,0.312 nm
14,B14,0.38 nm

# Molecular target: T1, Processed stabilized hMPV PreF trimer …
# Assay: BLI, ratio to unprocessed PreF trimer
row,Binder,processed/unprocessed PreF trimer binding ratio
1,B1,0.18
2,B2,0.09
3,B3,0.44
4,B5,0.17
5,B6,1.16
6,B7,0.71
7,B8,0.33
8,B9,0.38
9,B10,1.04
10,B11,0.93
11,B12,1.16
12,B13,1.15
13,B14,1.31
